Measured values published in article PMC11198818, “Positive charges promote the recognition of proteins by the chaperone SlyD from Escherichia coli” (PLOS ONE, 2024).

Tests used:
Test in all cases: ITC; VP-ITC (MicroCal), 30°C, 10 mM potassium phosphate buffer pH 7.6 or 7.8; SlyD or its variant 30 uM in the calorimetric cell, HiPIP precursor (RR-HiPIP) injected: 100 uM, 2x 22 injections of 10 uL (Fig 4); 200 uM, 23 injections of 10 uL (Fig 3)
Settings in all cases: both partners purified
[1] = target: T1, SlyD D101A, C-terminally hexahistidine-tagged (E. coli, UniProt P0A9K9 1-196, D101A)
T1 construct: FKBP-type peptidyl-prolyl cis-trans isomerase SlyD, E. coli; the tag is fused to the C-terminal domain; not shown: His6, C-terminal, kept
T1 sequence: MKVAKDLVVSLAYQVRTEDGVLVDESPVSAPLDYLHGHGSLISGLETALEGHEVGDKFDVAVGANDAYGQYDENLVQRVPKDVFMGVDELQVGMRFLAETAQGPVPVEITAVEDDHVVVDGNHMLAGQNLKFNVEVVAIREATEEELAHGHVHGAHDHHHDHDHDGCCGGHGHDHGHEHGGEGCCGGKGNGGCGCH

[2] = target: T2, SlyD D115A, C-terminally hexahistidine-tagged (E. coli, UniProt P0A9K9 1-196, D115A)
T2 construct: FKBP-type peptidyl-prolyl cis-trans isomerase SlyD, E. coli; the tag is fused to the C-terminal domain; not shown: His6, C-terminal, kept
T2 sequence: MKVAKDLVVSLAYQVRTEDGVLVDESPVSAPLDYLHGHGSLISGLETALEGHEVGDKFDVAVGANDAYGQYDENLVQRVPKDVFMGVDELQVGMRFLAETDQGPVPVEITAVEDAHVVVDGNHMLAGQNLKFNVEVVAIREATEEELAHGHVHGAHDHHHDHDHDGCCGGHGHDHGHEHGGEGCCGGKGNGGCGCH

[3] = target: T3, SlyD F84N, C-terminally hexahistidine-tagged (E. coli, UniProt P0A9K9 1-196, F84N)
T3 construct: FKBP-type peptidyl-prolyl cis-trans isomerase SlyD, E. coli; the tag is fused to the C-terminal domain; not shown: His6, C-terminal, kept
T3 sequence: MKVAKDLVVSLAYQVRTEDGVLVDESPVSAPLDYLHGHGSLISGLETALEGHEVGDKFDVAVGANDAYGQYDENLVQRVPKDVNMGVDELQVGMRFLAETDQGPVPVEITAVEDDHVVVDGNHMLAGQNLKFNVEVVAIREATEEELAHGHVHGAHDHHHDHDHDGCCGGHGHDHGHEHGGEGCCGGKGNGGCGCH

[4] = target: T4, SlyD E108A, C-terminally hexahistidine-tagged (E. coli, UniProt P0A9K9 1-196, E108A)
T4 construct: FKBP-type peptidyl-prolyl cis-trans isomerase SlyD, E. coli; the tag is fused to the C-terminal domain; not shown: His6, C-terminal, kept
T4 sequence: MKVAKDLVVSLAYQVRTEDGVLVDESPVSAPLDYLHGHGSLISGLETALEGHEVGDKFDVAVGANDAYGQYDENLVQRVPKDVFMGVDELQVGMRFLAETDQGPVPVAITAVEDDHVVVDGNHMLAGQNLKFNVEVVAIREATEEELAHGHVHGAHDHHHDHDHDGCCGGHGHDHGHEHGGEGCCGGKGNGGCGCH

[5] = target: T5, SlyD F84A, C-terminally hexahistidine-tagged (E. coli, UniProt P0A9K9 1-196, F84A)
T5 construct: FKBP-type peptidyl-prolyl cis-trans isomerase SlyD, E. coli; the tag is fused to the C-terminal domain; not shown: His6, C-terminal, kept
T5 sequence: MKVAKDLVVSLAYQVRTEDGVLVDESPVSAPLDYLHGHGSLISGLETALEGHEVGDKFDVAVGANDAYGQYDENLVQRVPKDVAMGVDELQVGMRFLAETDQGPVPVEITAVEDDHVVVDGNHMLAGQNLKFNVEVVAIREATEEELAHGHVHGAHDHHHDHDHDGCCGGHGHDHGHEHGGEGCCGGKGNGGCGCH

[6] = target: T6, SlyD F96A, C-terminally hexahistidine-tagged (E. coli, UniProt P0A9K9 1-196, F96A)
T6 construct: FKBP-type peptidyl-prolyl cis-trans isomerase SlyD, E. coli; the tag is fused to the C-terminal domain; not shown: His6, C-terminal, kept
T6 sequence: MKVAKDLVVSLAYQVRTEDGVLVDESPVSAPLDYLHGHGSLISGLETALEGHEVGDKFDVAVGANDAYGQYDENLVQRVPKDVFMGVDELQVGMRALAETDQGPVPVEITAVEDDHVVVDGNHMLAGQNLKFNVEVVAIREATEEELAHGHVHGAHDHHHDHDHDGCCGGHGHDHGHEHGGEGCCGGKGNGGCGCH

[7] = target: T7, SlyD F96N, C-terminally hexahistidine-tagged (E. coli, UniProt P0A9K9 1-196, F96N)
T7 construct: FKBP-type peptidyl-prolyl cis-trans isomerase SlyD, E. coli; the tag is fused to the C-terminal domain; not shown: His6, C-terminal, kept
T7 sequence: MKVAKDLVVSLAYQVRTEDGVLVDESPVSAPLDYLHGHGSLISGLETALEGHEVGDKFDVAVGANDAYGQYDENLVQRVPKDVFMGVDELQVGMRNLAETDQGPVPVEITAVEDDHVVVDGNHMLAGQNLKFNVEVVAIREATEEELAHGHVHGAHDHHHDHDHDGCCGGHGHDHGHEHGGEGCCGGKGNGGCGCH

B1: HiPIP precursor (RR-HiPIP) from Allochromatium vinosum (natural protein)
chain: MSDKPISKSRRDAVKVMLGTAAAIPMINLVGFGTARASAPANAVAADDATAIALKYNQDATKSERVAAARPGLPPEEQHCANCQFMQADAAGATDEWKGCQLFPGKLINVNGWCASWTLKAG
modifications: HiPIP precursor; fully folded, [4Fe-4S] cluster presumed; signal peptide retained
[1]
  stoichiometry N: 0.604 ± 0.012
[2]
  Kd: 0.27 ± 0.02 µM
  stoichiometry N: 0.541 ± 0.026
[3]
  Kd: 6.62 ± 0.2 µM
  stoichiometry N: 0.532 ± 0.004
[4]
  stoichiometry N: 0.569 ± 0.015
[5]
  stoichiometry N: 0.766 ± 0.011
[6]
  Kd: 4.88 ± 0.54 µM
  stoichiometry N: 0.66 ± 0.013
[7]
  Kd: 8.85 ± 2.78 µM
  stoichiometry N: 0.628 ± 0.036
